According to paper PMC8939767 (Science Translational Medicine, 2022):

Molecular target: SARS-CoV-2 spike S2P (soluble S trimer with two proline mutations) (SARS-CoV-2, Wuhan reference, UniProt P0DTC2, stabilised)
Experiment: BLI; […] (AHC) sensors, […], association 120 s, […]
Settings: both partners purified

B1: CC40.8 broadly neutralizing antibody (IgG) (antibody, V domains shown)
VH: EVQLLESGGGLVQPGGSLRLSCAASGFTFSSYVMTWARQAPGKGLEWVSAISGTGYTYYADSVKGRFTVSRDNSKNTLFLQMSSLRAEDTAVYYCAITMAPVVWGQGTTVTVSS
VL: SYELTQPPSVSVSPGQTARITCSGDALPKRYAYWYQQKSGQAPILVIYEDKKRPSGIPERLSGSKSGTVATLTISGAQVEDEADYYCYSTDSSGNHAVFGGGTQLTVL
notes: also called CC40.8 bnAb; CC40.8 mAb
- binding result: binds
